# B1: PrnA: tryptophan 7-halogenase, first step in pyrrolnitrin biosynthesis (protein, UniProt P95480 1-538, looked up)
# Tryptophan 7-halogenase PrnA: MNKPIKNIVIVGGGTAGWMAASYLVRALQQQANITLIESAAIPRIGVGEATIPSLQKVFFDFLGIPEREWMPQVNGAFKAAIKFVNWRKSPDPSRDDHFYHLFGNVPNCDGVPLTHYWLRKREQGFQQPMEYACYPQPGALDGKLAPCLSDGTRQMSHAWHFDAHLVADFLKRWAVERGVNRVVDEVVDVRLNNRGYISNLLTKEGRTLEADLFIDCSGMRGLLINQALKEPFIDMSDYLLCDSAVASAVPNDDARDGVEPYTSSIAMNSGWTWKIPMLGRFGSGYVFSSHFTSRDQATADFLKLWGLSDNQPLNQIKFRVGRNKRAWVNNCVSIGLSSCFLEPLESTGIYFIYAALYQLVKHFPDTSFDPRLSDAFNAEIVHMFDDCRDFVQAHYFTTSRDDTPFWLANRHDLRLSDAIKEKVQRYKAGLPLTTTSFDDSTYYETFDYEFKNFWLNGNYYCIFAGLGMLPDRSLPLLQHRPESIEKAEAMFASIRREAERLRTSLPTNYDYLRSLRDGDAGLSRGQRGPKLAAQESL
# B2: Dsg205: halogenase from Trichoderma virens Gy29-8 GenBank: EHK23009.1 (protein)
# chain: MAIPEKCTVLVVGGGPAGSYAAAALAREGIDTVILEADKFPRYHIGESMLASMRHFLRFIDVDSVFDSYGFTKKVGAAFKLNPKKREGYTDFLAAGGPENYAWNVVRSEADQLLFQHAAKSGAKAFDGVQVKSINFIDVPYKGPGQLPHDYPGRPVSATYVQKDDNTPREIKFDYIIDASGRVGILSTKHLKNRKYNQGLKNVATWGYWKGAGAYGKGTPRENSPFFEALQDESGWAWLIPLHNGTASVGIVMNQKMSVERKTQAGSPDSKTFYLDCLKELAPDLTKLMENGELITDIKSAADYSYSASGYAIPYARIAGDAGCFIDPYFSSGVHLAFVGGLSAAATIAAAIRGDCSEEAAADWHSKKIADAYIRFLLVVLSAYRQIRSQEEPVLSDINEDNFDRAFAFFRPVIQGIADVDTKLSQDELRKTLEFCSNAFEPVKPEDRTAMLEKLGKDPATAYQVDLSDQQRTVVDHIRARQMMRTEDTININSFGTDSINGFVPNLKRGELGLVPAKV
# modifications: left off: small tags and cut ends
# Assays:
# [1] = engineered to expand substrate scope; cited from earlier work
# [2] = Halogenase activity of Dsg205 and Dsg701 against 600 member compound library, LC-MSMS assay; type: biochemical; conditions: 600 member compound library
# [3] = Halogenation of the initial 300 compound library by purified halogenase, LCMS; type: biochemical; conditions: out of 300 compounds
Molecule,yields after directed evolution and rational design [1],members of the library halogenated (substrates accepted) [2],compounds of the initial 300 compound library halogenated [3]
B1,15-65%,,
B2,,33,3
